Data set [1] deals with colon cancer cells (SW620, HCT116). Briefly: Annexin-V/PI apoptosis assay. The format is cell-based, human. The method, then:
Cells were seeded in 24-well plate ([…] cells per well) overnight and then treated with 20 μg/mL mEpAb2-6, hEpAb2-6 or MT201, or […] LGK974 (MedChemExpress) or the combination for 24 hrs. Cell pellets were collected, and an apoptosis assay was performed using an Annexin-V/PI apoptosis kit (BD Biosciences). Results were read by flow cytometry analysis percentage apoptotic cells was calculated.

The next data set concerns EpCAM. Briefly: Antibody binding to EpCAM wild-type, deletion and point mutants in HEK293T cells (immunofluorescence, flow cytometry, cellular ELISA). Also on record: species or system human. Particulars: mutations at EpCAM positions Y32 (EGF-I domain) or Y95 (EGF-II domain); HEK293T cells. The method, then: FIGS. 18A to 18G. […] HEK293T cells were transfected with full length or EGF like-domain deletion mutant EpCAM-V5. Antibody binding was assessed by (FIG. 8A) Western blotting, (FIG. 8B) flow cytometry, and (FIG. 8C) immunofluorescence. (FIG. 8D) EpCAM mutants were constructed with amino acid substitutions in the EGF-I (Y32A) and EGF-II (L94A, Y95A, or D96A) domains. EpCAM wild-type and mutant proteins were expressed in HEK293T cells. Binding of MT201, EpAb2-6 and EpAb23-1 to EpCAM wild-type and mutants were evaluated by (FIG. 8E) immunofluorescence, (FIG. 8F) flow cytometry, and (FIG. 8G) cellular ELISA. All data are presented as mean±SEM. *, p<0.05; **, p<0.01.
Here, we wanted to determine whether the antibody binds to EpCAM at both EGF-like domains of EpEX (FIG. 18A, FIG. 18B, FIG. 18C). To confirm that EpAb2-6 recognizes the LYD motif in EpCAM, we constructed cDNA sequences encoding the first (aa 27-59; EGF-I domain) and second (aa 66-135; EGF-II/TY domain) EGF-like repeats of EpCAM. PCR-based site-directed mutagenesis was then used to introduce mutations into each domain (FIG. 18D). The reactivity of EpAb2-6 antibody toward these EpCAM mutants was evaluated by immunofluorescence (FIG. 18E), flow cytometry (FIG. 18F), and cellular ELISA (FIG. 18G).

The target of the next data set is T1, recombinant LRP5 (Homo sapiens, UniProt O75197).
T1 construct: purchased Proteintech
T1 sequence (O75197 32-1615): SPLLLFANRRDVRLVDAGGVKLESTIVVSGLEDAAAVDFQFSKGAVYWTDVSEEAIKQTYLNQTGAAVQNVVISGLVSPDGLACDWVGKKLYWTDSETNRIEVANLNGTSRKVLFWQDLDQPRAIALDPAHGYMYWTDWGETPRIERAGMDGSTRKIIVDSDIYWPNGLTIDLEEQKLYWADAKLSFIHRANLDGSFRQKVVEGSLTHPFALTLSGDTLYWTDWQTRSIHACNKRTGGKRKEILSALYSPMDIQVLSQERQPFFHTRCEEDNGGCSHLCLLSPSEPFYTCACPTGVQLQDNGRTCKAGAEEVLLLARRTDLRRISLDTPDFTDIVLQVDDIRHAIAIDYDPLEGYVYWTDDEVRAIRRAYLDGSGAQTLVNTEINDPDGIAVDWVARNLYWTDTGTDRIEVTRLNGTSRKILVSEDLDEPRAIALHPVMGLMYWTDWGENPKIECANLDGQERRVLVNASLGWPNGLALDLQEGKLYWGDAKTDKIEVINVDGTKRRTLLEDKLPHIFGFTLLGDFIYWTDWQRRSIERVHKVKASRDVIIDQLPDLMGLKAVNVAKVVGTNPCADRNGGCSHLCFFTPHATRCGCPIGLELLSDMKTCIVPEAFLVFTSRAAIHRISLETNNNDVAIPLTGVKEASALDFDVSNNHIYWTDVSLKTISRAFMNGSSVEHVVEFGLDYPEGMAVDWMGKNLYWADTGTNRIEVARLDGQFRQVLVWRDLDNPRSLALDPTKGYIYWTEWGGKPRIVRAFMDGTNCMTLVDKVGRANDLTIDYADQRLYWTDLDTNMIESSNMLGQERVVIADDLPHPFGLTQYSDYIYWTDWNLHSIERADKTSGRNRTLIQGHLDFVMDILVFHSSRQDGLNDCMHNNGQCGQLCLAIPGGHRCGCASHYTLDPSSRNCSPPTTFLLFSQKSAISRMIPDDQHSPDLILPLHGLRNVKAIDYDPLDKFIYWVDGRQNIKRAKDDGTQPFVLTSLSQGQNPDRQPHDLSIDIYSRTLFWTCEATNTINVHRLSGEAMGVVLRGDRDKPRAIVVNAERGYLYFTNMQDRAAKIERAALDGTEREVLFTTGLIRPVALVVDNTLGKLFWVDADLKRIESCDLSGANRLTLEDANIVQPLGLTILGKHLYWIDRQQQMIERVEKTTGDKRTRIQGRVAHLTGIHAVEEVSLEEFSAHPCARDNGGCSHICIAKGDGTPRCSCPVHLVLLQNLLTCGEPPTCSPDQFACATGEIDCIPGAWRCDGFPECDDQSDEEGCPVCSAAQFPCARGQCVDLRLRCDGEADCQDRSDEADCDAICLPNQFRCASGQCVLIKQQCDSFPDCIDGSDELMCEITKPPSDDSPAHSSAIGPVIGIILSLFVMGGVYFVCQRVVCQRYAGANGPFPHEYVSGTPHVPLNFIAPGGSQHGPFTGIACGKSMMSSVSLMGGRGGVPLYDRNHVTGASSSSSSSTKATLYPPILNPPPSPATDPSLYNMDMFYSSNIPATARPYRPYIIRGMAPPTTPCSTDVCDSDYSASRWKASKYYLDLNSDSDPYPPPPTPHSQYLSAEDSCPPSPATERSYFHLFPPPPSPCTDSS
In words: ELISA of EpEX binding to Wnt receptor-coated plates (LRP5). The method, then:
For ELISA, wells (at least 6 wells per single protein) were coated with recombinant FZD6 (Proteintech), recombinant FZD7 (Proteintech), recombinant LRP5 (Proteintech), recombinant LRP6 (Proteintech) overnight at 4° C. The wells were then blocked with 1% BSA and treated with EpEX-his (Produced in house by Expi293 Expression System) for 2 hours. Otherwise, EpEX-His was incubated with EpAb2-6 overnight and the complex was used to treat the protein-coated plates for 2 hours. Further anti-His antibody (abeam) was used and TMB was performed to record optical density at 450 nm.

The next data set deals with γ-secretase. In words: γ-Secretase activity (luciferase reporter). Conditions: HCT116 and HT29 cells; 250 ng/mL EpEX-His or 100 ng/mL Wnt3A for 8 h, or combination. The format is cell-based, human. How it is done: The γ-secretase activity was measured using the protocol described by Liao et al (2004) (Liao et al., 2004). In brief, cells were transiently transfected with the control plasmid and tetracycline-inducible γ-secretase plasmid harboring luciferase (Liao et al., 2004) (the plasmids were generous gifts from Dr. Yung-Feng Liao, ICOB, Academia Sinica). Cells were treated with 250 ng/mL EpEX-His or 100 ng/mL Wnt3A (R&D Systems) for 8 h. Further, cells were lysed using passive lysis buffer and subjected to the luciferase assay.

For a further data set, the system named is TACE. In words: TACE activity assay. The format is cell-based, human. Conditions: HCT116 and HT29 cells; 250 ng/mL EpEX-His or 100 ng/mL Wnt3A for 8 h, or combination. The method, then: Cells were seeded overnight in 24-well plate ([…] cells per well) and further treated with 250 ng/mL EpEX-His or 100 ng/mL Wnt3A (R&D Systems) for 8 h. Then, TACE activity was measured using the InnoZyme TACE activity kit (Merck). In brief, cell lysates were prepared with RIPA buffer and loaded into a TACE antibody-coated plate and incubated at RT for 1 h with slight shaking. Further, the lysates were removed and the plate was washed three times. Substrate was added into each well and incubated for 5 h at 37° C. Finally, the fluorescence signal of the reaction product was detected at excitation of 324 nm and emission of 405 nm using a microplate reader.

Another data set concerns Axin2. Briefly: Wnt-target Axin2 expression (western blot, qPCR). The format is cell-based, human. Conditions: HT29 and HCT116 cells; EpEX, Wnt3A or combination; protein and mRNA. How it is done:
For western blotting, cells were extracted using radioimmunoprecipitation assay (RIPA) buffer [(0.01 M sodium phosphate, pH 7.2), 150 mM NaCl, 2 mM EDTA, 50 mM NaF, 1% Nonidet P-40, 1% sodium deoxycholate, and 0.1% SDS)] containing phosphatase inhibitor (Roche) and protease inhibitor (Roche) cocktail. Equal amounts of protein were separated by SDS-PAGE and then transferred to PVDF membranes. The membranes were blocked with 3% BSA in TBST (Blocking solution) and incubated with necessary primary antibodies in the blocking solution overnight at 4° C. Membranes were then incubated with HRP-conjugated secondary antibodies in the blocking solution for 1 h at room temperature, and protein expression were detected. […]
Total RNA was extracted using TRI reagent and 5 μg of the total RNA was further reverse-transcribed using oligo (dT) primer with reverse transcriptase. Quantitative real time RT-PCR (qPCR) was performed on cDNA using the Light Cycler 480 SYBR Green-I Master kit and the LightCycler480 System. […]

“MT201: adecatumumab, a human anti-EpCAM antibody that was subjected to clinical trials [reference compound]”: the induction of apoptosis entry in data set [1] (HCT116 cells, 20 μg/mL hEpAb2-6, mEpAb2-6 or MT201 for 24 hrs) is on record as “does not have such activity”. In addition, the “antibody binding to EpCAM mutants” value in the data set on EpCAM is recorded as “did not affect MT201 binding”.

B1: EpAb2-6: anti-EpCAM (EpEX) neutralizing monoclonal antibody produced in mice by hybridoma; VH SEQ ID NO: 15, VL SEQ ID NO: 16 (antibody, V domains shown)
VH: VKLQESGPELKKPGETVKISCKASGYTFTDYSMHWVKQAPGKGLKWMGWINTETGEPTYADDFKGRFAFSLETSASTAYLQINNLKNEDTATYFCARTAVYWGQGTTVTVSS
VL: DIQMTQSPSSLSASLGERVSLTCRASQEISVSLSWLQQEPDGTIKRLIYATSTLDSGVPKRFSGSRSGSDYSLTISSLESEDFVDYYCLQYASYPWTFGGGTKLEIK
Regarding B1, the induction of apoptosis result in data set [1] (SW620 and HCT116 cells, 20 μg/mL EpAb2-6, LGK974 or the combination for 24 hrs) is reported as “could induce apoptosis”. Besides, the “EpEX binding to LRP5 after pre-incubation with antibody” value in the data set with recombinant LRP5 (EpEX-His incubated with antibody overnight) is “substantially decreased binding”. For the same molecule, the “antibody binding to EpCAM mutants” value in the data set on EpCAM is reported as “marked reductions in EpAb2-6 binding”.

B2: EpEX: extracellular domain of EpCAM, produced in house by Expi293 Expression System (protein)
chain: QEECVCENYKLAVNCFVNNNRQCQCTSVGAQNTVICSKLAAKCLVMKAEMNGSKLGRRAKPEGALQNNDGLYDPDCDESGLFKAKQCNGTSMCWCVNTAGVRRTDKDTEITCSERVRTYWIIIELKHKAREKPYDSKSLRTALQKEITTRYQLDPKFITSILYENNVITIDLVQNSSQKTQNDVDIADVAYYFEKDVKGESLFHSKKMDLTVNGEQLDLDPGQTLIYYVDEKAPEFSMQGLKAGVIAVIVVVVIAVVAGIVVLVISRKKRMAKYEKAEIKEMGEMHRELNA
On to B2, for which the γ-secretase activity result in the data set on γ-secretase is recorded as “enhanced”. In addition, the TACE activity result in the data set with TACE is given as “enhanced”. The Axin2 expression entry in the data set on Axin2 was “increased Axin2 expression”. Moreover, the “EpEX binding to LRP5” value with recombinant LRP5 (EpEX-His alone, 2 hours, optical density at 450 nm) is recorded as “bind with all receptor proteins”.

B3: Wnt3A: recombinant Wnt3A (R & D systems) (protein, UniProt P56704 19-352, looked up)
Protein Wnt-3a: SYPIWWSLAVGPQYSSLGSQPILCASIPGLVPKQLRFCRNYVEIMPSVAEGIKIGIQECQHQFRGRRWNCTTVHDSLAIFGPVLDKATRESAFVHAIASAGVAFAVTRSCAEGTAAICGCSSRHQGSPGKGWKWGGCSEDIEFGGMVSREFADARENRPDARSAMNRHNNEAGRQAIASHMHLKCKCHGLSGSCEVKTCWWSQPDFRAIGDFLKDKYDSASEMVVEKHRESRGWVETLRPRYTYFKVPTERDLVYYEASPNFCEPNPETGSFGTRDRTCNVSSHGIDGCDLLCCGRGHNARAERRREKCRCVFHWCCYVSCQECTRVYDVHTCK
For the molecule B3, the γ-secretase activity result in the data set with γ-secretase is recorded as “enhanced”. Also, the TACE activity entry in the data set with TACE is listed as “enhanced”. Also, the Axin2 expression entry in the data set on Axin2 is “increased Axin2 expression”.

These data come from patent US20250129146A1, “COMBINED CANCER THERAPY WITH AN EPITHELIAL CELL ADHESION MOLECULE (EPCAM) INHIBITOR AND A WNT INHIBITOR” (ACADEMIA SINICA, priority 2021, published 2025).
